Data: US20200325208A1 (IMMUNOWAKE, published 2020)
Read-outs that look alike come from different tables or passages of the source.

B1: Nivolumab (e.g., Opdivo®) (antibody, human IgG4 S228P, kappa, V domains shown)
VH: QVQLVESGGGVVQPGRSLRLDCKASGITFSNSGMHWVRQAPGKGLEWVAVIWYDGSKRYYADSVKGRFTISRDNSKNTLFLQMNSLRAEDTAVYYCATNDDYWGQGTLVTVSS
VL: EIVLTQSPATLSLSPGERATLSCRASQSVSSYLAWYQQKPGQAPRLLIYDASNRATGIPARFSGSGSGTDFTLTISSLEPEDFAVYYCQQSSNWPRTFGQGTKVEIKR
notes: Parental full-length IgG4 antibody; also called anti-PD-1 antibody
B2: Human VEGF121/VEGF-A protein (human VEGF 121 isoform) with 6-His tag (ligand)
chain: APMAEGGGQNHHEVVKFMDVYQRSYCHPIETLVDIFQEYPDEIEYIFKPSCVPLMRCGGCCNDEGLECVPTEESNITMQIMRIKPHQGQHIGEMSFLQHNKCECRPKKDRARQEKCDKPRR
notes: range 27-147; Bought from Sino Biological; captured on the ELISA plate through an anti-His-tag antibody; not shown: 6-His tag
B3: Pembrolizumab (e.g., Keytruda®) (antibody, human IgG4 S228P, kappa, V domains shown)
VH: QVQLVQSGVEVKKPGASVKVSCKASGYTFTNYYMYWVRQAPGQGLEWMGGINPSNGGTNFNEKFKNRVTLTTDSSTTTAYMELKSLQFDDTAVYYCARRDYRFDMGFDYWGQGTTVTVSS
VL: EIVLTQSPATLSLSPGERATLSCRASKGVSTSGYSYLHWYQQKPGQAPRLLIYLASYLESGVPARFSGSGSGTDFTLTISSLEPEDFAVYYCQHSRDLPLTFGGGTKVEIKR
notes: Parental full-length IgG4 antibody, used as the positive anti-PD-1 control; also called anti-PD-1 antibody
B4: Durvalumab (e.g., IMFINZI™) (antibody, human IgG1, kappa, V domains shown)
VH: EVQLVESGGGLVQPGGSLRLSCAASGFTFSRYWMSWVRQAPGKGLEWVANIKQDGSEKYYVDSVKGRFTISRDNAKNSLYLQMNSLRAEDTAVYYCAREGGWFGELAFDYWGQGTLVTVSS
VL: EIVLTQSPGTLSLSPGERATLSCRASQRVSSSYLAWYQQKPGQAPRLLIYDASSRATGIPDRFSGSGSGTDFTLTISRLEPEDFAVYYCQQYGSLPWTFGQGTKVEIKR
notes: Parental full-length IgG1 kappa; also called MEDI4736; anti-PD-L1 antibody
B5: aPD-L1/LC-GS6-VEGFR-mIgG1 (other)
heavy: EVQLVESGGGLVQPGGSLRLSCAASGFTFSRYWMSWVRQAPGKGLEWVANIKQDGSEKYYVDSVKGRFTISRDNAKNSLYLQMNSLRAEDTAVYYCAREGGWFGELAFDYWGQGTLVTVSSASTKGPSVFPLAPSSKSTSGGTAALGCLVKDYFPEPVTVSWNSGALTSGVHTFPAVLQSSGLYSLSSVVTVPSSSLGTQTYICNVNHKPSNTKVDKRVEPKSCDKTHTCPPCPAPEFEGGPSVFLFPPKPKDTLMISRTPEVTCVVVDVSHEDPEVKFNWYVDGVEVHNAKTKPREEQYNSTYRVVSVLTVLHQDWLNGKEYKCKVSNKALPASIEKTISKAKGQPREPQVYTLPPSRDELTKNQVSLTCLVKGFYPSDIAVEWESNGQPENNYKTTPPVLDSDGSFFLYSKLTVDKSRWQQGNVFSCSVMHEALHNHYTQKSLSLSPGK
light: EIVLTQSPGTLSLSPGERATLSCRASQRVSSSYLAWYQQKPGQAPRLLIYDASSRATGIPDRFSGSGSGTDFTLTISRLEPEDFAVYYCQQYGSLPWTFGQGTKVEIKRTVAAPSVFIFPPSDEQLKSGTASVVCLLNNFYPREAKVQWKVDNALQSGNSQESVTEQDSKDSTYSLSSTLTLSKADYEKHKVYACEVTHQGLSSPVTKSFNRGECTGGGGSGGGGSGGGGSGGGGSGGGGSGGGGSTGSDTGRPFVEMYSEIPEIIHMTEGRELVIPCRVTSPNITVTLKKFPLDTLIPDGKRIIWDSRKGFIISNATYKEIGLLTCEATVNGHLYKTNYLTHRQTNTIIDVVLSPSHGIELSVGEKLVLNCTARTELNVGIDFNWEYPSSKHQHKKLVLSPVNRDLKTQSGSEMKKFLSTLTIDGVTRSDQGLYTCAASSGLMTKKNSTFVRVHEK
notes: Durvalumab (Fc-mutated IgG1) with Flt1d2-Flk1d3 fused to the C-terminus of the light chains through the GS6 linker; Expressed in CHO cells
B6: Ixekizumab (e.g., Taltz®) (antibody, human IgG4 S228P, kappa, V domains shown)
VH: QVQLVQSGAEVKKPGSSVKVSCKASGYSFTDYHIHWVRQAPGQGLEWMGVINPMYGTTDYNQRFKGRVTITADESTSTAYMELSSLRSEDTAVYYCARYDYFTGTGVYWGQGTLVTVSS
VL: DIVMTQTPLSLSVTPGQPASISCRSSRSLVHSRGNTYLHWYLQKPGQSPQLLIYKVSNRFIGVPDRFSGSGSGTDFTLKISRVEAEDVGVYYCSQSTHLPFTFGQGTKLEIKR
notes: Parental full-length IgG4 antibody; also called anti-IL-17A antibody

What was measured:
[1] = target: B2; experiment: ELISA, antigen captured by anti-His antibody on plate, HRP anti-IgG Fc detection
Protocol: (§1) 96-well ELISA plates were coated with 100 μl His-tag antibody (capture antibody, 0.4 μg/ml) at room temperature (RT) overnight. The coated plates were washed with washing buffer (pH 7.4 PBS with 0.1% Tween 20) three times, and blocked with 3% BSA in washing buffer for 2 hours, at RT. […] After washing three times, VEGFR-antibody light chain fusion proteins of various concentrations in washing buffer containing 3% BSA were added to the coated plates, and let incubation for 2 hours at RT. Aflibercept (VEGFR-Fc fusion protein) and the corresponding parental full-length antibody were included as positive controls. […] After washing three times, HRP conjugated anti-gG Fc antibody (secondary antibody) was added (1:6000 dilution with 3% BSA in washing buffer), and incubated for 2 hours at RT. After washing four times, 100 μl HRP substrate was added to each well. After developing for 20 minutes, stop buffer was added to each well. Optical density (OD) of each well was measured immediately using a microplate reader at 450 nm. EC₅, was calculated if OD>2.0; otherwise, EC₅₀ was not calculated.

Human IL-17A protein = target: T1, Human IL-17A protein (human, UniProt Q16552 24-155); experiment: as above
T1 construct: Purchased
T1 sequence (Q16552 24-155 limits assumed): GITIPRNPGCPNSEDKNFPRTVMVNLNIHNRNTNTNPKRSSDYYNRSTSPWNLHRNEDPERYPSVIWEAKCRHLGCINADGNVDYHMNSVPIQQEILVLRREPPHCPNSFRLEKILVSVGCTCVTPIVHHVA
Protocol: as §1

EGFR/LC-GS6-VEGFR-IgG1 = target: T2, EGFR/LC-GS6-VEGFR-IgG1; experiment: ELISA
T2 construct: Cetuximab IgG1 with Flt1d2-Flk1d3 fused to the C-terminus of the light chains through the GS6 linker; Expressed in CHO cells

TNFα/LC-GS6-VEGFR-IgG1 = TNFα/LC-GS6-VEGFR-IgG1 (Homo sapiens (Human), UniProt P0DOX5 2-449 = IgG part); experiment: ELISA
[2] = target: T3, tPD-L1/LC-GS6-VEGFR-nIgG1 (Homo sapiens (Human), UniProt P0DOX5 2-449 = IgG part); experiment: ELISA
T3 construct: Atezolizumab (de-glycosylated IgG1) with Flt1d2-Flk1d3 fused to the C-terminus of the light chains through the GS6 linker; Expressed in CHO cells

[3] = target: B2; experiment: ELISA, antigen captured by anti-His antibody on plate, HRP anti-IgG Fc detection; remark: listed apart in the source
Protocol: as §1

Human PD-1 protein = target: T4, Human PD-1 protein (human, UniProt Q15116 25-167, limits assumed); experiment: as above
T4 construct: Purchased
T4 sequence (Q15116 25-167 limits assumed): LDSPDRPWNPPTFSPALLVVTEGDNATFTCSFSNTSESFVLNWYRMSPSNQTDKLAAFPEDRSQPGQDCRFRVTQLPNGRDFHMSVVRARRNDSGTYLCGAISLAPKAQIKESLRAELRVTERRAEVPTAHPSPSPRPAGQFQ
Protocol: as §1

## B1
[1]
  binding result: no binding
Human IL-17A protein
  binding result: no binding

## B2
EGFR/LC-GS6-VEGFR-IgG1
  binding result: binds
TNFα/LC-GS6-VEGFR-IgG1
  binding result: binds
[2]
  binding result: binds

## B3
[1]
  binding result: no binding
Human IL-17A protein
  binding result: no binding

## B4
[3]
  binding result: no binding

## B5
[3]
  EC50: 34.5 nM

## B6
[1]
  binding result: no binding
Human PD-1 protein
  binding result: no binding
Human IL-17A protein
  EC50: 1.1 nM
